Measurements published in PMC7221964, “Comparison of Molecular Recognition of Trimethyllysine and Trimethylthialysine by Epigenetic Reader Proteins” (Molecules, 2020).
Ends that are not written are not given here.

T1: SGF29 tandem tudor domain (TTD) reader (human, UniProt Q96ES7 115-293)
T1 construct: SGF29, human, tandem tudor domain; also called SGF29TTD
T1 sequence: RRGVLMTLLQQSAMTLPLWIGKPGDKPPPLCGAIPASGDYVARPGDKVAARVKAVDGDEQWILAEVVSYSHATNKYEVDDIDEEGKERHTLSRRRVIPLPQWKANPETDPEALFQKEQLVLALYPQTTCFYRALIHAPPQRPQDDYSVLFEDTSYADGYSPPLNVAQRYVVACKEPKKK

T2: TAF3 PHD reader domain (human, UniProt Q5VWG9 855-915)
T2 sequence: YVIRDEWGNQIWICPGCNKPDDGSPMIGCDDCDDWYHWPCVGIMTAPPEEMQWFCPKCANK

T3: KDM5A PHD3 reader domain (human, UniProt P29375 1609-1659)
T3 construct: KDM5A, human, third PHD zinc finger (PHD3)
T3 sequence: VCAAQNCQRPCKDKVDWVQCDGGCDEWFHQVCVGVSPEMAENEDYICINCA

T4: KDM4A tandem tudor domain (TTD) reader (human, UniProt O75164 895-1011)
T4 construct: KDM4A, human, tandem tudor domain; also called KDM4ATTD
T4 sequence: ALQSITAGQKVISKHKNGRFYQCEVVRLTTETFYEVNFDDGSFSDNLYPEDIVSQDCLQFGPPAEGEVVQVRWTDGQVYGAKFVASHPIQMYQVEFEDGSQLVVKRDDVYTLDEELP

B1: 10-mer histone H3 peptide bearing trimethyllysine at position 4 (H3K4me3) (peptide)
peptide: ARTKQTARKS
modifications: trimethyllysine (Kme3) at position 4
notes: histone H3, residues 1-10, printed as ART(Kme3/KCme3)QTARKS; also called 1–10 H3K4me3; source: synthetic peptide (solid-phase peptide synthesis, preparative HPLC)
B2: 10-mer histone H3 peptide bearing trimethylthialysine at position 4 (H3KC4me3) (peptide)
peptide: ARTCQTARKS
modifications: not fully specified (residue 4)
notes: histone H3, residues 1-10, printed as ART(Kme3/KCme3)QTARKS; position 4 is a cysteine alkylated to trimethylthialysine; The letter C at position 4 stands for the alkylated cysteine (trimethylthialysine), not a free cysteine; also called 1–10 H3KC4me3

Legend:
Experiment in all cases: ITC; 19 injections of histone peptide (0.3–1.2 mM) into reader protein (22–100 µM), 298.15 K, same buffer as used in size exclusion chromatography, one-site fit, 3–5 repeats
Details in all cases: both partners purified
[1] = molecular target: T1, SGF29 tandem tudor domain (TTD) reader
TAF3 PHD reader domain = molecular target: T2, TAF3 PHD reader domain
KDM5A PHD3 reader domain = molecular target: T3, KDM5A PHD3 reader domain
BPTF PHD reader domain = BPTF PHD reader domain (human, UniProt Q12830 2865-3033)
[2] = molecular target: T4, KDM4A tandem tudor domain (TTD) reader

| Binder | Kd [1] [µM] | dH [1] [kcal/mol] | Kd (TAF3 PHD reader domain) [nM] | dH (TAF3 PHD reader domain) [kcal/mol] | Kd (KDM5A PHD3 reader domain) [nM] | dH (KDM5A PHD3 reader domain) [kcal/mol] | dH (BPTF PHD reader domain) [kcal/mol] | Kd [2] [µM] | dH [2] [kcal/mol] | Kd (BPTF PHD reader domain) [µM] |
| --- | --- | --- | --- | --- | --- | --- | --- | --- | --- | --- |
| B1 | 2.6 ± 0.3 | -8 ± 0.1 | 84 ± 12 | -10.7 ± 0.1 | 71 ± 8 | -10.7 ± 0.1 | -12.4 ± 0.1 | 6.6 ± 0.8 | -13 ± 0.2 | – |
| B2 | 6.1 ± 0.7 | -5.8 ± 0.1 | 42 ± 7 | -10.8 ± 0.1 | 150 ± 200 | -9.6 ± 0.1 | -9 ± 0.1 | 3.1 ± 0.6 | -14.8 ± 0.2 | 3.8 ± 0.5 |
